Reference: the supplement of paper PMC10065799, “High-throughput profiling of sequence recognition by tyrosine kinases and SH2 domains using bacterial peptide display” (eLife, 2023)

Key:
Grb2 SH2 = Grb2 SH2 (UniProt P62993); assay: SH2 binding enrichment of the phosphorylated peptide, bacterial display (enrichment ratio); higher = better substrate or ligand; peptides without Tyr show the background
c-Src SH2 = assay: as above
SHP2-C SH2 = assay: as above
c-Src = assay: phosphorylation enrichment, bacterial display (enrichment ratio); higher = better substrate or ligand; peptides without Tyr show the background
AncSZ = assay: as above
EPHB1 = EPHB1 (UniProt P54762); assay: as above
Fes = Fes (UniProt P07332); assay: as above
Fyn = Fyn (UniProt P06241); assay: as above
Jak2 = Jak2 (UniProt O60674); assay: as above
Chain of Jak2 (O60674 whole entry, looked up): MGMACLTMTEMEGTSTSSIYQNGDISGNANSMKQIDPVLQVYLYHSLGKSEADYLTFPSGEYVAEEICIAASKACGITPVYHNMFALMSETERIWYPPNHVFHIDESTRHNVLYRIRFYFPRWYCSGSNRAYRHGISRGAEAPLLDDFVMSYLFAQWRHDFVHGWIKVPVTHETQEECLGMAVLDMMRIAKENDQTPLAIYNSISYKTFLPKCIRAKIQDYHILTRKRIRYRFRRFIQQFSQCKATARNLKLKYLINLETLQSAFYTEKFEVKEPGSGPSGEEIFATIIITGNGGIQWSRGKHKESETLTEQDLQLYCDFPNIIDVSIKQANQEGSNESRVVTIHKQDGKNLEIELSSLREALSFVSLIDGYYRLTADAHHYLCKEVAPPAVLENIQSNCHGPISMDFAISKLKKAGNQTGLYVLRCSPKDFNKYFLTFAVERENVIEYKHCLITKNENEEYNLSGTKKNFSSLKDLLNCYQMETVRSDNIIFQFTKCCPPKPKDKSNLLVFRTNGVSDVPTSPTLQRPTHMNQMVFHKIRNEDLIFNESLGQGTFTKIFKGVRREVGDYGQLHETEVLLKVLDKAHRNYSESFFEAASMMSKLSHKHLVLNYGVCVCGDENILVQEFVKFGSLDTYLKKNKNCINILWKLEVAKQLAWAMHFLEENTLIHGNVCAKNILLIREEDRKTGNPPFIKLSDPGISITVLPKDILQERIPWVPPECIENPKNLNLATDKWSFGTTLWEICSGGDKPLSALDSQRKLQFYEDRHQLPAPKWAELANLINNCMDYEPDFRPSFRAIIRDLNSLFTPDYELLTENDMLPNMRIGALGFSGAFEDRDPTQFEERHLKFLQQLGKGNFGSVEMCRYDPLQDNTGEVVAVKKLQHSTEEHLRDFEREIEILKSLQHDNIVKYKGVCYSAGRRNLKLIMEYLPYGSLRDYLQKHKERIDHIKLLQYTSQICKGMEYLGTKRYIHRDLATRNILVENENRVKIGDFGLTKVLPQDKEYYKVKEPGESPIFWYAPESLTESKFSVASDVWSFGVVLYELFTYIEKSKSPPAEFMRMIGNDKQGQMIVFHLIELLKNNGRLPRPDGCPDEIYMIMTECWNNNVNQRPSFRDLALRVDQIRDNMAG

Hck = Hck (UniProt P08631); assay: as above
EPHB2 = EPHB2 (UniProt P29323); assay: as above
Chain of EPHB2 (P29323 whole entry, looked up): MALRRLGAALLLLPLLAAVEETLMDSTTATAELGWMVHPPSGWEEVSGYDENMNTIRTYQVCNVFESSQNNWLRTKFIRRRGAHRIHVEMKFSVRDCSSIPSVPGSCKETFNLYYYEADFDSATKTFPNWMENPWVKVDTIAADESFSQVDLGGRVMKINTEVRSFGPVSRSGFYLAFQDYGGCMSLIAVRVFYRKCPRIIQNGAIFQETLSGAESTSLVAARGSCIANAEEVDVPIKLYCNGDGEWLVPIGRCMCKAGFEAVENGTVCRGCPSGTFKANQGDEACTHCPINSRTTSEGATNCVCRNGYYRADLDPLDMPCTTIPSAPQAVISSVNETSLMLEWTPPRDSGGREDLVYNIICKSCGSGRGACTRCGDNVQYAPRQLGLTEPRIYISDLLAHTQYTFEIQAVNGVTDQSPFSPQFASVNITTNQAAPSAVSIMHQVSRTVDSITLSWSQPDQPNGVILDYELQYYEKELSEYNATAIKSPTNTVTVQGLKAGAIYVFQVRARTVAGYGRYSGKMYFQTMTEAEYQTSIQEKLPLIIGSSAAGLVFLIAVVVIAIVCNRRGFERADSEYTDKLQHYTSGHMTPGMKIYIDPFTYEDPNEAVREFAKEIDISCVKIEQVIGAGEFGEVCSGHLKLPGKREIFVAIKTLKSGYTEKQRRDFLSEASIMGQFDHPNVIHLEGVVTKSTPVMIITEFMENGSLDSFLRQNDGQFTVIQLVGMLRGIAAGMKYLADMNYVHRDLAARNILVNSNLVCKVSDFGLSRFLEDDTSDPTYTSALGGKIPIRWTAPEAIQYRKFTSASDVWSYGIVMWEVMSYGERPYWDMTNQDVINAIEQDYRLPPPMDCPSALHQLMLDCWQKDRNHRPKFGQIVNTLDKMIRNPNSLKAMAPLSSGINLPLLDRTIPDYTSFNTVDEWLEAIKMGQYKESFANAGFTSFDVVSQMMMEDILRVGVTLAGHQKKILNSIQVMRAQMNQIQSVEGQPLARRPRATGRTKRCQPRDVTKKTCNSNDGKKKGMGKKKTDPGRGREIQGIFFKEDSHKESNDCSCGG

FGFR3 = FGFR3 (UniProt P22607); assay: as above
Chain of FGFR3 (P22607 whole entry, looked up): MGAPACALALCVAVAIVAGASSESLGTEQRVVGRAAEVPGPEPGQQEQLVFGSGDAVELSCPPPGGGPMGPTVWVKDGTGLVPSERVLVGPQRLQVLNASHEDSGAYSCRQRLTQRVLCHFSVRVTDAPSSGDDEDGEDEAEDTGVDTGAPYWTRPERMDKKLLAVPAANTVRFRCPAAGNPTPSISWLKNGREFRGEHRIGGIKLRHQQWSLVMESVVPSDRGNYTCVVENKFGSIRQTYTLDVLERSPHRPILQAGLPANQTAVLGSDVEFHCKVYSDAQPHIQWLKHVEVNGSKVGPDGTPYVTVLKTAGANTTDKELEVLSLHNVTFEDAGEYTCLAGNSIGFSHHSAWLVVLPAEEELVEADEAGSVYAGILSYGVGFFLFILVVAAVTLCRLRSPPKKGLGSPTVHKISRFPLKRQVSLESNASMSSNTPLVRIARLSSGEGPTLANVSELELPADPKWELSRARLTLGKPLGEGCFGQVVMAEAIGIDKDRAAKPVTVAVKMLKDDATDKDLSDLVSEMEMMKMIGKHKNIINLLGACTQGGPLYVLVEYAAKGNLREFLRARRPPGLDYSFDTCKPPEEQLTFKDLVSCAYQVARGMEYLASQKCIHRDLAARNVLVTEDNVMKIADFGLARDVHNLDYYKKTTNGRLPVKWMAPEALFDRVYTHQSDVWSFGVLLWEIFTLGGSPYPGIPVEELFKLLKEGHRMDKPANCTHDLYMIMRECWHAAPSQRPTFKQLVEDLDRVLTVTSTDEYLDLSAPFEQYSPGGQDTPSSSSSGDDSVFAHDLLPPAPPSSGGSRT

c-Abl (mouse) = assay: as above
Fer (mouse) = assay: as above
FGFR1 = FGFR1 (UniProt P11362); assay: as above
Chain of FGFR1 (P11362 whole entry, looked up): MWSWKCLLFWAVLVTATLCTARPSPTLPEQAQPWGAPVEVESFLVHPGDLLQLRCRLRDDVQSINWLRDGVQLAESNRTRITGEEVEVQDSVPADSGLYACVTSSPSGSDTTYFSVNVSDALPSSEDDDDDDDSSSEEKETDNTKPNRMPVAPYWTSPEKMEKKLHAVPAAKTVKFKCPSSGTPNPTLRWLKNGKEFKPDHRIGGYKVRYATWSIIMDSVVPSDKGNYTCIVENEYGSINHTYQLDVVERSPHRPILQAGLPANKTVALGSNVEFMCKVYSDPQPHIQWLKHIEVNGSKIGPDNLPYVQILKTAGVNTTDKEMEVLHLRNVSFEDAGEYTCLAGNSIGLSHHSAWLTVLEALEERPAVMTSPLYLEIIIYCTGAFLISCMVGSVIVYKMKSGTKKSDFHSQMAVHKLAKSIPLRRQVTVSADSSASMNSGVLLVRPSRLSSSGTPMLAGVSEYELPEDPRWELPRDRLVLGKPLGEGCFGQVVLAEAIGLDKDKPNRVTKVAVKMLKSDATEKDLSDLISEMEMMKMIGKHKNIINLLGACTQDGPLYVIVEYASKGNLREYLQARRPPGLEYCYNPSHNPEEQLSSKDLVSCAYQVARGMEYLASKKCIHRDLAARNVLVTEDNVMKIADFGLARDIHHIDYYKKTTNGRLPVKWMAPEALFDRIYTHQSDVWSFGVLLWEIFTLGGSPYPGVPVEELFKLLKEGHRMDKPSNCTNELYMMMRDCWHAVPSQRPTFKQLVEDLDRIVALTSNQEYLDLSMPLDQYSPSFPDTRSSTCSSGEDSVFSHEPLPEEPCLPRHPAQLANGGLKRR

MERTK = MERTK (UniProt Q12866); assay: as above
Chain of MERTK (Q12866 whole entry, looked up, the tested form may be a part): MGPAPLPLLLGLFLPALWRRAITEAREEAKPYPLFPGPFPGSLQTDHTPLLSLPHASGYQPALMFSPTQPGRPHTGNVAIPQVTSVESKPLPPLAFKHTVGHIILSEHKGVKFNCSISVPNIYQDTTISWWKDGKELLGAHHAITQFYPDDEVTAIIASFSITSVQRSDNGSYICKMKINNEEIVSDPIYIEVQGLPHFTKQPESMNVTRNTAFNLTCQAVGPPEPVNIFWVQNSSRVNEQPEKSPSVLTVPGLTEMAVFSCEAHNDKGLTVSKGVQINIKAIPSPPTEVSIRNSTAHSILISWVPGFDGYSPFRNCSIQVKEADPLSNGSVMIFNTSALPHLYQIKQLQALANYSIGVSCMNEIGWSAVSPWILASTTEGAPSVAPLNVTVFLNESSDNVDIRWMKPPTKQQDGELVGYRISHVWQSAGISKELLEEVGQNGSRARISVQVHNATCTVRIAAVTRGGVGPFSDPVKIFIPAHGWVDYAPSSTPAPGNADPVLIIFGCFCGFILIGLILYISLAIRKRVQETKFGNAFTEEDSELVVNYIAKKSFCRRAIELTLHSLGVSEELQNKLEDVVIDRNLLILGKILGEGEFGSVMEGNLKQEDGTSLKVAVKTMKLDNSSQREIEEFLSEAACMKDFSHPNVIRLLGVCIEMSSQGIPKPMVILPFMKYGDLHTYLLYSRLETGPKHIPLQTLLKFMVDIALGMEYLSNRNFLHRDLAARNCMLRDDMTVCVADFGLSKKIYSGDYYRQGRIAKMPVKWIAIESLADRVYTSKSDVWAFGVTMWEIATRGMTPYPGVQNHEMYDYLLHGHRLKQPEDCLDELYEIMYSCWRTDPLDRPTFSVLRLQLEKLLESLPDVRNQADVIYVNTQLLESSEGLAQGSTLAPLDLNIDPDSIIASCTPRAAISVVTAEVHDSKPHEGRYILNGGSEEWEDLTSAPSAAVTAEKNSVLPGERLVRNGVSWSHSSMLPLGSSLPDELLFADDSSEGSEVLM
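Throughout, for SH2 binding enrichment of the phosphorylated peptide, bacterial display: peptide library displayed on the E. coli surface as eCPX fusions, selected cells deep-sequenced, score is each peptide's frequency after selection divided by its frequency in the input.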
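Throughout, for phosphorylation enrichment, bacterial display: 11-residue human phosphosite peptides and single-mutation variants displayed on the E. coli surface, counted by deep sequencing, each peptide's frequency after selection divided by its frequency in the unselected input library; frequency after pTyr selection over input frequency; kinase dosed for 20-30% of maximal phosphorylation in three min.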

Chain of Grb2 SH2 (P62993 whole entry, looked up): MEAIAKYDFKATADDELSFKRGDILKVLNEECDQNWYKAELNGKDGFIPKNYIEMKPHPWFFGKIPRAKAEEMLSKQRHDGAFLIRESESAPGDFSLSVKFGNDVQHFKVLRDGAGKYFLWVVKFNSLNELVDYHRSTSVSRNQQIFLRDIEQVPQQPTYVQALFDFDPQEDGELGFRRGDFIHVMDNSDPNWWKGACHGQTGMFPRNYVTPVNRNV

Row | Sequence | SH2 binding enrichment (Grb2 SH2) | SH2 binding enrichment (c-Src SH2) | SH2 binding enrichment (SHP2-C SH2) | phosphorylation enrichment (c-Src) | phosphorylation enrichment (AncSZ) | phosphorylation enrichment (EPHB1) | phosphorylation enrichment (Fes) | phosphorylation enrichment (Fyn) | phosphorylation enrichment (Jak2) | phosphorylation enrichment (Hck) | phosphorylation enrichment (EPHB2) | phosphorylation enrichment (FGFR3) | phosphorylation enrichment (c-Abl (mouse)) | phosphorylation enrichment (Fer (mouse)) | phosphorylation enrichment (FGFR1) | phosphorylation enrichment (MERTK)
1 | KFWREYILSLE [GPC3_Y299_YF] | 1.27 | 0.932 | 1.31 | 0.588 | 0.999 | 0.552 | 1.2 | 0.462 | 0.997 | 0.452 | 0.666 | 0.72 | 0.912 | 0.422 | 0.478 | 0.431
2 | FYNSEYGELSE [FLT4_Y1337] | 0.886 | 0.748 | 0.805 | 1.69 | 1.47 | 0.729 | 1.36 | 1.59 | 1.58 | 0.997 | 0.956 | 0.932 | 0.986 | 0.684 | 0.628 | 0.589
3 | EKKKKYMLPLD [DNM2_Y563_E560K] | 0.762 | 0.522 | 0.436 | 0.496 | 0.594 | 0.52 | 0.951 | 0.604 | 0.567 | 0.452 | 0.469 | 0.506 | 0.691 | 0.502 | 0.5 | 0.504
4 | LARDMHDKEFF [MET_Y1230_Y1230H_YF] | 0.884 | 0.423 | 0.668 | 0.671 | 1.08 | 0.723 | 0.864 | 0.821 | 1.15 | 0.812 | 0.757 | 0.661 | 0.91 | 0.362 | 0.625 | 0.907
5 | DDERGYRRVRC [GIGYF2_Y268_S273C] | 1.09 | 0.658 | 0.788 | 0.426 | 0.75 | 0.519 | 0.882 | 0.529 | 0.834 | 0.483 | 0.551 | 0.562 | 0.647 | 0.513 | 0.533 | 0.438
6 | GVLKEYGEKVL [CPS1_Y529_V531E] | 0.921 | 0.427 | 0.767 | 0.396 | 0.742 | 0.42 | 0.719 | 0.425 | 0.573 | 0.422 | 0.474 | 0.466 | 0.648 | 0.405 | 0.419 | 0.415
7 | RESYKYFPSSL [CXXC1_Y218] | 1.06 | 0.688 | 0.697 | 0.861 | 1.18 | 0.651 | 0.841 | 0.843 | 1.15 | 0.685 | 0.475 | 1.09 | 0.77 | 0.82 | 0.51 | 0.69
8 | YRKNTYNVKST [SYNE2_Y575_I574T] | 0.79 | 0.46 | 0.715 | 0.398 | 0.415 | 0.351 | 0.465 | 0.344 | 0.393 | 0.346 | 0.296 | 0.361 | 0.351 | 0.327 | 0.334 | 0.316
9 | FEEDSYVKRSQ [RET_Y905_YF] | 0.799 | 0.603 | 0.858 | 0.47 | 0.904 | 0.52 | 1.11 | 0.523 | 0.881 | 0.487 | 0.492 | 0.552 | 0.645 | 0.41 | 0.41 | 0.417
10 | GLTSTYVGIRK [ROBO1_Y932_A933V] | 0.741 | 0.649 | 11.5 | 0.562 | 0.756 | 0.471 | 0.775 | 0.528 | 0.598 | 1.67 | 0.506 | 0.489 | 0.565 | 0.374 | 0.46 | 0.463
11 | GFSRHYEDGFP [CTNND1_Y217_YF] | 0.708 | 1.44 | 0.564 | 0.335 | 0.619 | 0.432 | 0.739 | 0.428 | 0.608 | 0.435 | 0.451 | 0.563 | 0.405 | 0.574 | 0.352 | 0.442
12 | VQVAFYTVMMN [SPATA17_Y84_M86V_YF] | 0.815 | 0.632 | 0.69 | 0.71 | 1.18 | 1.17 | 1.44 | 0.567 | 1.36 | 0.605 | 0.737 | 0.959 | 1.07 | 0.677 | 0.643 | 1.84
13 | GSIQQYTFKQE [PRG4_Y1271_I1272T_YF] | 0.829 | 0.53 | 0.937 | 0.356 | 0.703 | 0.484 | 0.785 | 0.345 | 0.641 | 0.347 | 0.451 | 0.573 | 0.728 | 0.427 | 0.369 | 0.322
14 | QRRYLYYYSYL [PTEN_Y176_V175L] | 0.776 | 0.507 | 0.683 | 2.84 | 1.14 | 1.19 | 0.887 | 1.62 | 4.97 | 2.2 | 1.12 | 3.52 | 0.494 | 0.671 | 4.64 | 7.18
15 | FGGTVCHSPVS [PRC1_Y511_Y511C] | 0.756 | 0.596 | 0.508 | 0.576 | 0.688 | 0.38 | 0.627 | 0.447 | 0.506 | 0.505 | 0.493 | 0.524 | 0.548 | 0.452 | 0.524 | 0.456
16 | INMKKYCKKDY [NTN1_Y490] | 0.948 | 0.87 | 0.864 | 0.401 | 0.626 | 0.424 | 0.912 | 0.391 | 0.698 | 0.461 | 0.298 | 0.592 | 0.824 | 0.434 | 0.45 | 0.402
